Results: patent US12559863B2, “Macrocyclic modulators of disease associated protein misfolding and aggregation” (RESQ BIOTECH, priority 2017, dated 2026)

Target: T1, Aβ42-GFP (Homo sapiens, UniProt P05067)
T1 construct: a chimeric fusion of the human Aβ(1-42) peptide (Aβ42) with GFP; expressed in transfected cells; host or cells: E. coli BL21(DE3)
Test: High-throughput sequencing of pSICLOPPS vectors isolated after bacterial sorting for enhanced Aβ42-GFP fluorescence
Conditions: for Reads/Total TXXXR reads (%): relative to total TXXXR reads; for Reads/Total pentapeptide reads (%): relative to total pentapeptide reads
Excerpt: On the other hand, very few bioactive sequences resembling AβC5-34 should exist. […] The peptide-encoding vectors contained in these clones were isolated and the peptide-encoding region of approximately 5.6 million of these plasmids was sequenced using an Ion Torrent high-throughput sequencing platform. […] First, pentapeptides were the dominant peptide species within the sorted pool (FIG. 12D), in agreement with previous observations (FIG. 8G). Second, the most prevalent motif among the selected pentapeptide sequences were TXXXR pentapeptides (˜47% of the selected pentapeptide-encoding pSICLOPPS plasmids; ˜42% of the unique selected pentapeptide sequences) (Table 1), in accordance with previous observations (FIG. 8G). […] At position 2, Thr, Ala, and Val were preferred, while aromatic residues (Phe, Trp, Tyr) were completely excluded from the selected TXXXR peptide pool, in full agreement with our site-directed mutagenesis studies. At the highly variable position 3, the complete absence of the negatively charged amino acids Glu and Asp among the selected sequences was notable (FIG. 12E). […] It is noteworthy, that Lys and Gln residues were practically absent from all positions, while the β sheet-breaking amino acid Pro that is typically included in designed peptide-based inhibitors of amyloid aggregation appeared with strikingly low frequencies (FIG. 12E).
Electrocompetent E. coli BL21(DE3) cells (Novagen, USA) carrying either the expression vector pETSOD1(A4V)-GFP, which produces SOD1(A4V)-GFP under control of the strong bacteriophage T7 promoter, or pETAβ42-GFP, which produces Aβ42-GFP under control of the T7 promoter, were co-transformed with the combined pSICLOPPS-NuX1X2X3-X5 vector library. Approximately 10^8 transformants carrying both the vector library and either pETSOD1(A4V)-GFP or pETAβ42-GFP vectors were harvested, pooled together, and grown in Luria-Bertani (LB) liquid medium containing either 0.005% (pETSOD1(A4F)-GFP) or 0.002% (pETAβ42-GFP) L-arabinose—the inducer of cyclic peptide production—at 37° C. with shaking. When the optical density at 600 nm (OD600) of the bacterial culture was about 0.5, 0.01 (pETSOD1(A4F)-GFP) or 0.1 (pETAβ42-GFP) mM isopropyl-β-D-thiogalactoside (IPTG) was added to the medium to induce overexpression of the reporter. […] The isolated cells were re-grown and screened for additional rounds in an identical manner until the desired enrichment in high-fluorescence clones was achieved.
For the characterization of the initial libraries, a combined pSICLOPPS-NuX1X2X3-X5 vector library was prepared containing approximately equal amounts of each one of the tetra-, penta- and hexapeptide sub-libraries. These samples were digested with NcoI and BsrGI and the resulting ˜250 bp product that contained the variable peptide-encoding region was isolated. High-throughput sequencing analysis was performed using an Ion Torrent high-throughput sequencing platform. From the obtained data, all the sequences with mismatches outside of the variable peptide-encoding region were removed, and only the 12-, 15- or 18-bp-long peptide-encoding sequences were subjected to further analysis. The libraries of the selected cyclic peptides that enhance either SOD1(A4V)-GFP or Aβ42-GFP fluorescence were sequenced in a similar manner, with the only exception being that all sequences including stop codons were discarded from subsequent analysis.

[1] = after the second round of bacterial sorting
[2] = after the second round of bacterial sorting, relative to total peptide reads
[3] = high-throughput sequencing of isolated pSICLOPPS-NuX1X2X3-X5 vectors after the second round of bacterial sorting for enhanced Aβ42-GFP fluorescence, selected cyclo-TXXXR pentapeptides
[4] = after the second round of bacterial sorting for enhanced Aβ42-GFP fluorescence
[5] = after the second round of bacterial sorting for enhanced Aβ42-GFP fluorescence, relative to total peptide reads
[6] = pSICLOPPS-NuX1X2X3-X5 vectors after the second round of bacterial sorting for enhanced Aβ42-GFP fluorescence
[7] = Table 4, hexapeptides, after second round of sorting

Row | Substance | Reads/Total TXXXR reads (%) [1] | Reads/Total pentapeptide reads (%) [1] | Reads/Total peptide reads (%) [2] | Number of reads [3] | Reads/Total TXXXR reads (%) [4] | Reads/Total pentapeptide reads (%) [4] | Reads/Total peptide reads (%) [5] | Number of reads [6] | Reads/Total hexapeptide reads (%) (Table 4) | Reads/Total peptide reads (%) (Table 4) | Number of reads [7]
1 | AβC5-260 (TTWTR; cyclic) | 0.016% | 0.007% | 0.007% | 295 |  |  |  |  |  |  | 
2 | AβC5-410 (TVLGR; cyclic pentapeptide) |  |  |  |  | 0.004% | 0.002% | 0.002% | 76 |  |  | 
3 | AβC5-242 (TTSTR; cyclic) | 0.020% | 0.009% | 0.008% | 376 |  |  |  |  |  |  | 
4 | AβC5-392 (TTCDR; head-to-tail cyclic) |  |  |  |  | 0.005% | 0.002% | 0.002% | 87 |  |  | 
5 | AβC5-185 (TTFNR; cyclic) | 0.042% | 0.020% | 0.018% | 800 |  |  |  |  |  |  | 
6 | AβC5-452 (THVDR; cyclic pentapeptide) |  |  |  |  | 0.003% | 0.001% | 0.001% | 58 |  |  | 
7 | AβC5-223 (TGLDR; cyclic) | 0.024% | 0.011% | 0.010% | 464 |  |  |  |  |  |  | 
8 | AβC5-130 (TAYHR; cyclic) | 0.136% | 0.064% | 0.057% | 2,594 |  |  |  |  |  |  | 
9 | AβC5-316 (TTCAR; head-to-tail cyclic) | 0.008% | 0.004% | 0.003% | 157 |  |  |  |  |  |  | 
10 | AβC5-415 (TTTCR; cyclic pentapeptide) |  |  |  |  | 0.004% | 0.002% | 0.002% | 74 |  |  | 
11 | AβC5-17 (TTTAR; cyclic) | 2.110% | 0.989% | 0.886% | 40,135 |  |  |  |  |  |  | 
12 | AβC5-325 (TVWIR; head-to-tail cyclic) | 0.008% | 0.004% | 0.003% | 144 |  |  |  |  |  |  | 
13 | AβC5-448 (TAYAR; cyclic pentapeptide) |  |  |  |  | 0.003% | 0.001% | 0.001% | 58 |  |  | 
14 | TIFWFD [AβC6-50] |  |  |  |  |  |  |  |  | 0.050% | 0.005% | 227
15 | TLSWYD [AβC6-47] |  |  |  |  |  |  |  |  | 0.053% | 0.005% | 239
16 | AβC5-51 (TSVDR; cyclic pentapeptide) | 1.012% | 0.474% | 0.425% | 19,249 |  |  |  |  |  |  | 
